Experimental findings from US6482605 are described below.

The data set concerns the target EGF receptor (endogenous, in PC12 cell lysate).

B1: histidine-tagged PTP20 wild-type (6 histidine residues at the N-terminus), tetracycline-controlled expression in PC12 cells (protein)
chain: MHHHHHHSRQSDLVRSFLEQQEARDHRKGAILAREFSDIKARSVAWKTEGVCSTKAGSQQGNSKKNRYKDVVPYDETRVILSLLQEEGHGDYINANFIRGTDGSQAYIATQGPLPHTLLDFWRLVWEFGIKVILMACQETENGRRKCERYWAQEREPLQAGPFCITLTKETALTSDITLRTLQVTFQKESRPVHQLQYMSWPDHGVPSSSDHILTMVEEARCLQGLGPGPLCVHCSAGCGRTGVLCAVDYVRQLLLTQTIPPNFSLFEVVLEMRKQRPAAVQTEEQYRFLYHTVAQLFSRTLQNNSPLYQNLKENRAPICKDSSSLRTSSALPATSRPLGGVLRSISVPGPPTLPMADTYAVVQKRGASGSTGPGTRAPNSTDTPIYSQVAPRIQRPVSHTENAQGTTALGRVPADENPSGPDAYEEVTDGAQTGGLGFNLRIGRPKGPRDPPAEWTRV
In the case of B1, the “tyrosine phosphorylation of EGF receptor upon EGF stimulation (precipitation, anti-phosphotyrosine blot)” value is recorded as “Overexpression of PTP20 wt resulted in dramatic dephosphorylation of EGF receptor”.
